Experimental data: patent publication US7888090B2, “Mutants of O6-alkylguanine-DNA alkyltransferase” (Ecole Polytechnique Federale de Lausanne, priority 2004, dated 2011)

Assays:
[1] = Periplasmic expression / stability under oxidizing conditions; parameters: species or system E. coli
Protocol: The activities towards AGT substrates are measured after purification without addition of reducing agents such as dithiothreitol or beta-mercaptoethanol. Alternatively, the activities of mutant AGT and wild type human are compared after their export into cellular compartments with oxidising redox potential (e.g. the periplasm of E. coli due to their fusion to appropriate signal sequences. Activity towards AGT substrates under reducing and oxidising conditions is compared by performing the reactions in the presence or absence of reducing agents such as dithiothreitol or beta-mercaptoethanol.
The mutant AGT gene of Example 1 is amplified and cloned as described in Example 1 with the oligonucleotides SEQ ID NO:3, SEQ ID NO:10 and SEQ ID NO:4, SEQ ID NO:9 causing the further mutation Cys62Ala in the gene upon their incorporation by PCR. Protein expression, purification and determination of yield is carried out as described in Example 1. The mutant gene is PCR amplified with the primers SEQ ID NO:11, SEQ ID NO:12 that contain SfiI restriction sites to subclone the gene in fusion to the g3 protein of filamentous phage in the vector pAK100 (Krebber et al., J Immunol Methods 201:35-55, 1997). […] The supernatant is directly subjected to quantification of protein yield via SDS-PAGE and activity assays as described in Example 1.
Stability under oxidizing conditions: The mutant gene is PCR amplified with the primers SEQ ID NO:11 and SEQ ID NO:28 to subclone the gene into pAK100, as described in Example 2. […] To compare the reactivity of […] (Juillerat et al., Chem Biol 10:313-317, 2003) and the mutant, samples are incubated with 1 µM BG-Bt for 50 min, quenched with SDS-Laemmli buffer and analyzed by western blotting using neutravidin peroxidase conjugate (Pierce) or a monoclonal mouse anti-FLAG IgG antibody (M2, Sigma) and a secondary anti-mouse-IgG::HRP conjugate, and Renaissance reagent plus (NEN). […] The anti-FLAG IgG antibody is used to estimate the total amount of soluble AGT protein, whereas neutravidin quantifies the reactive portion of it. […]

[2] = BG-Cy3 activity assay (reaction rate of AGT mutants); type: biochemical; conditions: divided by value for wild type hAGT; purified GST fusion proteins (p.)
In short: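 GST-AGT fusion protein (0.2 µM) or periplasmic extract was incubated with 0.5 µM BG-Cy3 and 0-5 µM modified oligonucleotide in 50 mM HEPES pH 7.2, 1 mM DTT, BSA. Reaction rate was followed by Cy3 fluorescence (ex 519/em 572 nm).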

[3] = Reactivity towards N^9-modified O^6-benzylguanine derivatives (preblocking, BG-Cy3 assay); type: biochemical; conditions: 100 µM BG, 15 min
Protocol: FIG. 3: Reactivity of AGT mutants with N^9-modified BG derivatives. 10 µM AGTM (grey bars) or PGEG-hAGT (black bars) were preblocked with 100 µM N^9-modified BG derivatives (see list below), and subsequently labeled with 20 µM BG-Cy3. After 1 h reaction time, fluorescence intensity (FI) indicated in arbitrary units [a.u.] at 595 nm is measured. The black bold line is set at the reading for condition 1 corresponding to background fluorescence of the fluorophore not attached to protein. Values above this line indicate slow or incomplete reaction with N^9-modified BG-derivative. • 1 Fluorescence of BG-Cy3 without protein; background fluorescence. • 2 Reaction with BG-Cy3; no preblocking, positive control. • 3 Reaction with BG-Cy3, preblocked with 100 µM BG. • 4 Reaction with BG-Cy3, preblocked with 100 µM N^9-isobutyl-O^6-benzylguanine. • 5 Reaction with BG-Cy3, preblocked with 100 µM N^9-propyl-O^6-benzylguanine. • 6 Reaction with BG-Cy3, preblocked with 100 µM N^9-cyanomethyl-O^6-benzylguanine.
Reactivity of AGT towards N^9-modified O^6-benzylguanine derivatives: The experiment is based on the BG-Cy3 assay. Upon reaction of AGT with BG-Cy3, an increase of fluorescence emission intensity of Cy3 by a factor 2-3 can be observed. […]

B1: AGTM: AGT mutant Cys62Ala, Gln115Ser, Gln116His, Lys125Ala, Ala127Thr, Arg128Ala, Gly131Lys, Gly132Thr, Met134Leu, Arg135Ser, Cys150Asn, Ser151Ile, Ser152Asn, Asn157Gly, Ser159Glu, truncated after … (protein, UniProt P16455 1-207, looked up, variant C62A Q115S Q116H K125A A127T R128A G131K G132T M134L R135S C150N S151I S152N N157G S159E del183-207)
Methylated-DNA--protein-cystei …: MDKDCEMKRTTLDSPLGKLELSGCEQGLHEIKLLGKGTSAADAVEVPAPAAVLGGPEPLMQATAWLNAYFHQPEAIEEFPVPALHHPVFQQESFTRQVLWKLLKVVKFGEVISYSHLAALAGNPAATAAVKTALSGNPVPILIPCHRVVNINGAVGGYEGGLAVKEWLLAHEGHRLGKPGLG
modifications: His tag
sensitivity to oxidation [1]: reduced sensitivity to oxidation | Relative reaction rate [2]: 2.72 | AGT remaining active after preblocking with BG [3]: 5%
